Target: TcMYB8 (Tanacetum cinerariifolium (clone W99), UniProt A0A9Y1M041 1-217)
Assay: EMSA; labeled probe 10 uM; EMSA with 10 uM FAM probe; buffer, salt, pH and temperature not stated
Conditions: protein: recombinant; tags: 6xHN, C-terminal (pET6HN-C vector); label: 5' 6-FAM; blunt

TcMYB8, sequence (A0A9Y1M041 entry or part of it): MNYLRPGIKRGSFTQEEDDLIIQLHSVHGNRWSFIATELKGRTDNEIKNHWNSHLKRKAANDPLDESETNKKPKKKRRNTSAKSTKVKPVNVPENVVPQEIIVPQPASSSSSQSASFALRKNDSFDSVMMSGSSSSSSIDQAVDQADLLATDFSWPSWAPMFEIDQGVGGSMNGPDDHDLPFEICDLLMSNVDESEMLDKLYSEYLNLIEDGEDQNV

B1: Probe_proGLIP (dsDNA)
DNA 1: CCTGACAGTTGCTATTTAGTGCTGTCTACTTGTTTAGTTGTGGAGCAAATGACT
DNA 2: AGTCATTTGCTCCACAACTAAACAAGTAGACAGCACTAAATAGCAACTGTCAGG
binding result: binds

B2: Probe_proCHS (dsDNA)
DNA 1: TTTGAAGGCAAGTGATGTAAAGTGCTAAGTGTTAAGTCAATGATTATAT
DNA 2: ATATAATCATTGACTTAACACTTAGCACTTTACATCACTTGCCTTCAAA
binding result: binds

Reference: PMC9602545, “TcMYB8, a R3-MYB Transcription Factor, Positively Regulates Pyrethrin Biosynthesis in Tanacetum cinerariifolium”
